Experimental data taken from the Immune Epitope Database (IEDB).

Tests used:
HLA-A*30:01 = assay: IEDB peptide-MHC binding, purified MHC/competitive/radioactivity; filed as Kd, often an IC50 or EC50 that approximates it; ≥ and ≤ were set here for values at or beyond the usual limits of such assays; details: source organism: Vaccinia virus WR
HLA-B*15:01 [1] = assay: as above; details: source organism: Vaccinia virus WR
HLA-A*32:01 = assay: as above; details: source organism: Vaccinia virus WR
HLA-B*15:03 = assay: as above
HLA-B*08:01 = assay: as above; details: source organism: Vaccinia virus WR
HLA-B*15:01 [2] = assay: IEDB peptide-MHC binding, purified MHC/competitive/fluorescence; ≥ and ≤ were set here for values at or beyond the usual limits of such assays
HLA-A*24:02 = assay: as above
HLA-A*02:01 [3] = assay: as above; details: source organism: Vaccinia virus WR
HLA-A*31:01 = assay: IEDB peptide-MHC binding, purified MHC/competitive/fluorescence; filed as Kd, often an IC50 or EC50 that approximates it; ≥ and ≤ were set here for values at or beyond the usual limits of such assays
HLA-A*11:01 = assay: IEDB peptide-MHC binding, purified MHC/direct/fluorescence; filed as Kd, often an IC50 or EC50 that approximates it; ≥ and ≤ were set here for values at or beyond the usual limits of such assays
HLA-A*03:01 = assay: as above
HLA-B*58:01 = assay: IEDB peptide-MHC binding, purified MHC/competitive/radioactivity; filed as Kd, often an IC50 or EC50 that approximates it; ≥ and ≤ were set here for values at or beyond the usual limits of such assays; details: source organism: Dengue virus 4 Philippines/H241/1956
HLA-B*18:01 = assay: IEDB peptide-MHC binding, purified MHC/competitive/fluorescence; filed as Kd, often an IC50 or EC50 that approximates it; ≥ and ≤ were set here for values at or beyond the usual limits of such assays; details: source organism: Araucaria virus
HLA-B*46:01 = assay: as above; details: source organism: Araucaria virus
HLA-B*57:01 = assay: as above; details: source organism: Araucaria virus
HLA-B*15:17 = assay: as above; details: source organism: Araucaria virus
HLA-A*69:01 = assay: as above; details: source organism: Araucaria virus
HLA-B*51:01 = assay: as above; details: source organism: Araucaria virus
HLA-B*27:03 = assay: as above; details: source organism: Araucaria virus
HLA-B*39:01 = assay: as above; details: source organism: Araucaria virus
HLA-A*02:01 [4] = assay: as above; details: source organism: Araucaria virus
HLA-A*26:01 = assay: IEDB peptide-MHC binding, purified MHC/direct/fluorescence; filed as Kd, often an IC50 or EC50 that approximates it; ≥ and ≤ were set here for values at or beyond the usual limits of such assays; details: source organism: Itapua hantavirus
HLA-A*02:11 = assay: as above; details: source organism: Araucaria virus
HLA-A*02:03 = assay: as above; details: source organism: Araucaria virus
HLA-A*02:12 = assay: as above; details: source organism: Araucaria virus
HLA-A*02:19 = assay: as above; details: source organism: Araucaria virus
HLA-A*02:16 = assay: as above; details: source organism: Araucaria virus
[5] = source organism: Vaccinia virus WR
[6] = source organism: Sudan ebolavirus
[7] = source organism: Influenza A virus (A/swine/Korea/S190/2004(H9N2))
[8] = source organism: Escherichia coli O157:H7
[9] = source organism: Campylobacter jejuni
[10] = source organism: Vaccinia virus
[11] = source organism: Vaccinia virus Copenhagen

Question: What does the source list for HVKSTLNNA?
Answer: Kd (HLA-A*30:01): 0.00115 µM; Kd (HLA-B*15:01 [1]): 0.366 µM; Kd (HLA-A*32:01): ≥ 41.7 µM; Kd (HLA-B*15:03; [5]): 0.376 µM; Kd (HLA-B*08:01): 1.53 µM

Question: For IKYACKQIL, which Kd (HLA-A*30:01) is on record?
Answer: 2.11 µM

Question: What about the Kd (HLA-B*15:01 [1]) of the same sequence?
Answer: 6.87 µM

Question: And the Kd (HLA-A*32:01)?
Answer: 10.7 µM

Question: And the Kd (HLA-B*15:03; [5])?
Answer: 0.252 µM

Question: And the Kd (HLA-B*08:01)?
Answer: 8.67 µM

Question: ILAKPKETF was tested. Which IC50 (HLA-B*15:01 [2]; [6]) did it give?
Answer: ≥ 102 µM

Question: And the IC50 (HLA-A*24:02; [6])?
Answer: 0.5 µM

Question: How did the IC50 (HLA-B*15:01 [2]; [5]) turn out when VGLITCKAF was run?
Answer: 57.3 µM

Question: And the IC50 (HLA-A*24:02; [5])?
Answer: 7.71 µM

Question: And the IC50 (HLA-A*02:01 [3])?
Answer: ≥ 1310 µM

Question: Which Kd (HLA-A*31:01; source organism: dengue virus type 1) does the source give for KTFVELMRR here?
Answer: ≤ 0.001 µM

Question: What about the Kd (HLA-A*11:01; source organism: Dengue virus 1 Singapore/S275/1990) of the same sequence?
Answer: 0.0162 µM

Question: With FTRCAVIPF as the sequence, how does the Kd (HLA-B*15:03; [5]) read?
Answer: 0.0054 µM

Question: Which results are given for TTHSWIPKR?
Answer: Kd (HLA-A*31:01; source organism: Influenza A virus (A/Fort Monmouth/1/1947-mouse adapted(H1N1))): 0.0023 µM; Kd (HLA-A*11:01; [7]): 0.132 µM; Kd (HLA-A*03:01; [7]): 2.83 µM

Question: IASLPTYLSS was tested. Which Kd (HLA-B*58:01) did it give?
Answer: ≥ 36.3 µM

Question: RFNVPGTWR was tested. Which Kd (HLA-A*31:01; source organism: Escherichia coli K-12) did it give?
Answer: 0.00127 µM

Question: What about the Kd (HLA-A*11:01; [8]) of the same sequence?
Answer: ≥ 20 µM

Question: What about the Kd (HLA-A*03:01; [8]) of the same sequence?
Answer: 1.92 µM

Question: Which Kd (HLA-B*18:01) does the source give for GVPELGAFF here?
Answer: ≥ 20 µM

Question: What about the Kd (HLA-B*46:01) of the same sequence?
Answer: ≥ 20 µM

Question: What about the Kd (HLA-B*57:01) of the same sequence?
Answer: ≥ 20 µM

Question: What about the Kd (HLA-B*15:17) of the same sequence?
Answer: ≥ 20 µM

Question: What about the Kd (HLA-A*69:01) of the same sequence?
Answer: ≥ 20 µM

Question: And the Kd (HLA-B*51:01)?
Answer: ≥ 20 µM

Question: What about the Kd (HLA-B*27:03) of the same sequence?
Answer: ≥ 20 µM

Question: What about the Kd (HLA-B*39:01) of the same sequence?
Answer: ≥ 20 µM

Question: And the Kd (HLA-A*02:01 [4])?
Answer: ≥ 20 µM

Question: What about the Kd (HLA-A*26:01) of the same sequence?
Answer: 0.207 µM

Question: And the Kd (HLA-A*02:11)?
Answer: ≥ 20 µM

Question: And the Kd (HLA-A*03:01; source organism: Araucaria virus)?
Answer: ≥ 20 µM

Question: And the Kd (HLA-A*02:03)?
Answer: ≥ 20 µM

Question: And the Kd (HLA-A*02:12)?
Answer: ≥ 20 µM

Question: What about the Kd (HLA-A*02:19) of the same sequence?
Answer: ≥ 20 µM

Question: And the Kd (HLA-A*02:16)?
Answer: ≥ 20 µM

Question: What does the source list for IMLEYPHFK?
Answer: Kd (HLA-A*31:01; source organism: Campylobacter jejuni subsp. jejuni NCTC 11168 = ATCC 700819): 0.0136 µM; Kd (HLA-A*11:01; [9]): 0.0018 µM; Kd (HLA-A*03:01; [9]): 0.0229 µM

Question: For KEFLRYLLF, which IC50 (HLA-B*15:01 [2]; [10]) is on record?
Answer: ≥ 277 µM

Question: What about the IC50 (HLA-A*24:02; [10]) of the same sequence?
Answer: 0.381 µM

Question: SVAPGTDFR was tested. Which Kd (HLA-A*31:01; source organism: Escherichia coli O157:H7 str. EDL933) did it give?
Answer: 0.007 µM

Question: And the Kd (HLA-A*11:01; [8])?
Answer: 0.0018 µM

Question: And the Kd (HLA-A*03:01; [8])?
Answer: 0.506 µM

Question: For IQRTYSSSI, which Kd (HLA-B*15:03; [5]) is on record?
Answer: 0.00083 µM

Question: With KLTSTETSF as the sequence, how does the Kd (HLA-B*15:03; [5]) read?
Answer: 0.0254 µM

Question: How did the IC50 (HLA-B*15:01 [2]; [11]) turn out when QMTSTFIML was run?
Answer: 30.2 µM

Question: And the IC50 (HLA-A*24:02; [11])?
Answer: 0.224 µM

Question: With KCIKKGVEY as the sequence, how does the IC50 (HLA-B*15:01 [2]; [10]) read?
Answer: ≥ 91.2 µM

Question: LPTNEFISF was tested. Which Kd (HLA-B*15:03; [5]) did it give?
Answer: 0.0337 µM

Question: How did the Kd (HLA-B*15:03; [11]) turn out when RQNRSQYLF was run?
Answer: 0.000137 µM
